Reference: patent KR20200098329A (dated 2020)
Where a chain is given by its changes, count along the chain named.

B1: 3G8 항체 (antibody, V domains shown)
VH: QIQLVQSGPELKKPGETVKISCKASGYSFTKYGMNWVKQAPGKDIKWMGWINTNTGEATYGEEVKGRFAFSLETSASTAYLQINNLKNEDTATYFCARLGLRYLDYWGQGTTLTVSS
VL: DIVMTQSPASLVVSLGQRATISCRASKSVSTSDYSYMHWYQQKPGQPPKVLIYLASNLESGVPARFSGSGSGTDFTLNIHPVEEEDAATYYCQHNRELPPTFGAGTKLELK
notes: Mouse monoclonal antibody from a hybridoma; Biotinylated when used as detecting antibody in the sandwich ELISA; also called 항-BAG2 항체 3G8
B2: 4C2 항체 (antibody, V domains shown)
VH: QVQLQQPGAELVRPGASVTLSCKASGYTFTDYEMHWVKQTPVHGLEWIGIIDPETGATAYNQKFKGKATLTADKSSSTAYMELRSLTSEDSAVYYCTRGKFYYSGRDYAMDYWGQGTSVTVSS
VL: DVLMTQTPLSLPVSLGDQASISCRSSQSIVHSNGNTYLEWYLQKPGQSPKLLFYKVSNRFSGVPDRFSGSGSGTDFTLKISRVEAEDLGVYFCFQGSQVPPTFGGGTKLEIK
notes: Mouse monoclonal antibody from a hybridoma; also called 항-BAG2 항체 4C2
B3: 8C4 항체 (antibody, V domains shown)
VH: B2 VH with G56A, A57G
VL: B2 VL
notes: Mouse monoclonal antibody from a hybridoma; also called 항-BAG2 항체 8C4
B4: 3F12 항체 (antibody, V domains shown)
VH: QVQLQESGPDLVKPSQSLSLTCTVTGYSITSGYSWHWIRQFPGNKLEWMGYIYYRGSTNYNPSLKSRISITRDTSKNQFFLLLKSVTTEDTATYYCAREAYWGQGTLVTVSA
VL: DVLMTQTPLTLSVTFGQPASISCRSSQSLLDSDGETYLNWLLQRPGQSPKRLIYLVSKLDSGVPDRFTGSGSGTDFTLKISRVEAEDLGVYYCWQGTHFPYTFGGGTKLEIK
notes: Mouse monoclonal antibody from a hybridoma; Biotinylated when used as detecting antibody in the sandwich ELISA; also called 항-BAG2 항체 3F12
B5: 2A11 항체 (antibody, V domains shown)
VH: B2 VH with A57G
VL: B2 VL with F53I
notes: Mouse monoclonal antibody from a hybridoma; also called 항-BAG2 항체 2A11

What follows are binders tested against T1, 인간 BAG2 단백질 (human, UniProt O95816 2-211, limits assumed) (assay: immunoblot on MDA-MB-231 cell lysate).
T1 construct: also called BAG2 폴리펩티드; human BAG2
T1 sequence (O95816 2-211 limits assumed): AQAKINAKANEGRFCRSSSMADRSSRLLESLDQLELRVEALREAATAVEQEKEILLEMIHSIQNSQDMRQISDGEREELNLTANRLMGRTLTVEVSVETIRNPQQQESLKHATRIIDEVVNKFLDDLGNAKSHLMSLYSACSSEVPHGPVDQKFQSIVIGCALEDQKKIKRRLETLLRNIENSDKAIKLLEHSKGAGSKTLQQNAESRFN

Binding result, binds:
B1, B2, B3

These binders were tested against T1, 인간 BAG2 단백질 (assay: immunoblot screening of hybridomas).

Binding result, binds:
B4, B5

What follows are binders tested against T2, GST-Bag Full (GST와 융합된 전장 BAG2 폴리펩티드) (human, UniProt O95816 1-211) (assay: immunoblot on lysate of HEK293T cells with the GST-Bag Full vector, signal at about 50 kDa).
T2 construct: Expressed in HEK293T cells, detected in lysate at about 50 kDa by immunoblot; not shown: GST tag, about 26 kDa, of the pcDNA3.1+/GST vector (NovoPro Bioscience)
T2 sequence (O95816 whole entry): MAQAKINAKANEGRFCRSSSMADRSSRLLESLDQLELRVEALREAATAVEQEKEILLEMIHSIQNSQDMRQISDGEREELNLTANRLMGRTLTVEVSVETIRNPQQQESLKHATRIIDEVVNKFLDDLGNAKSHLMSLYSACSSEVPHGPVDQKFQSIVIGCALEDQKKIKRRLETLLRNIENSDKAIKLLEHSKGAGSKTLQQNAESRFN

Binding result, binds:
B4, B1, B5, B2, B3
